# From patent US20220249563A1 (LEGEND BIOTECH IRELAND, published 2022)
# T1: extracellular domain of human DLL3 protein (aa27-466) having an N-terminal FLAG tag (AdipoGen, AG-40B-0151) (human, UniProt Q9NYJ7 27-466)
# T1 construct: range 27-466; also called DLL3 ECD protein
# T1 sequence (looked up): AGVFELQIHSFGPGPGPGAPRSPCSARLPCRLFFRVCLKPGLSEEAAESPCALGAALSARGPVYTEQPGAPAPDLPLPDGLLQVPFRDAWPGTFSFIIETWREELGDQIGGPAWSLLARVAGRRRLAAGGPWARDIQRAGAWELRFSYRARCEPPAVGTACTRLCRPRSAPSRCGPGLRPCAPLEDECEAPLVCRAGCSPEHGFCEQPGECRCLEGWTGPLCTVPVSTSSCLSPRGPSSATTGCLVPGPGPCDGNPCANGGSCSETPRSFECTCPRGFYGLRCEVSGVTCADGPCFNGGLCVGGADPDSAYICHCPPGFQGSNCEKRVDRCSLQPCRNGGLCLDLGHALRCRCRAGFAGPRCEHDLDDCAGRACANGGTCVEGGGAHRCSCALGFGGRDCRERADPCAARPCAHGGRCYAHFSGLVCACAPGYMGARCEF
# Target: T1, extracellular domain of human DLL3 …
# Assay: ELISA (protein), FACS (cells)
row,Binder,binding result
1,"AS64124 (VHH, camel sdAb; crude E. coli supernatant) VHH: QVKLVESGGGSVQTGGSLRLSCAVSTYTPSNNYMGWFRQAPGKEREGVAAIATIGGTTRYADSVKGRFTISQDGAKNTIYLQMNGLKPEDTAMYYCAAGRPYSLPLPLPLESGAYRYWGQGTQVTVSS",binds
2,"AS64594 (VHH, camel sdAb; crude E. coli supernatant) VHH: QVHLVESGGGSVQAGGSLRLSCAASGYTYNSNYMGWFRQAPGKEREGVALIYTGGGSTYYADSVKGRFTISRDNAKNTVYLQMNSLKPEDTAMYYCSVRTQTRNYWGQGTQVTVSS",binds
3,"AS63964 (VHH, camel sdAb; crude E. coli supernatant) VHH: QVRLVESGGGSVQAGGSLRLSCSASGYTYSYNNMGWFRQAPGNEREGVAAISGGRFTAYADSVKGRFTISRDNAENTLYLQMNNLKPEDTGMYYCAAEVVDPTWGSRDQRRYKYWGQGTQVTVSS",binds
4,"AS64605 (VHH, camel sdAb; crude E. coli supernatant) VHH: QVKLVESGGGSVQAGGSLRLSCAVSRYPYSSICMGWFRQAPGKESEGVARIYTGTGSTWYTDSVKGRFTIARDNAQNTVYLQMNSLKPEDTAMYYCAARSNSYSYSSCDYGPLTRGGYNFWGQGTQVTVSS",binds
5,"AS64475 (VHH, camel sdAb; crude E. coli supernatant) VHH: QVQLQESGGGSVQAGGSLRLSCAASGYTWSRNWMGWFRQAPGKEREGFATITISGGSTWYADSVKGRFTISLDNAGNTVYLQMNSLKPEDTAMYYCAARDTARTYWGQGTQVTVSS",binds
6,"AS63984 (VHH, camel sdAb; crude E. coli supernatant) VHH: QVKLVESGGGSVQAGGSLRLSCAASGYTYSSNFMGWFRQAPGKEREGVATIVSGGGTTYYADSVRGRFTISQDNAKNTVYLQMNSLKPEDTAMYYCAAGGPVTNAPRWYPLRPPGYNYWGQGTQVTVSS",binds
7,"AS64207 (VHH, camel sdAb; crude E. coli supernatant) VHH: EVQLVESGGGSVQAGGSLRLSCAASGYTYSSNFMGWFRQAPGKEREGVATIVSGGGTTYYADSVRGRFTISQDNAKNTVYLQMNSLKPEDTAMYYCAAGGPPTNGAKWYPLRPPGYNYWGQGTQVTVSS",binds
8,"AS63930 (VHH, camel sdAb; crude E. coli supernatant) VHH: EVQLAESGGGSVQAGGSLRLSCAASGYTYSGNYMAWFRQAPGNEREGVAVVYNIDGGGRFTTYADSVKGRFTISRGNDKNTVYLQMNSLKPEDSGMYYCAAEVADPTWGSRDQRRYKYWGQGTQVTVSS",binds
9,"AS68170 (VHH, camel sdAb; crude E. coli supernatant) VHH: QVQLVESGGGSVQAGGSLRLSCTASGYTYRSNCMGWFRQAPGKEREGVATIYTGGGRNLYYADSVKGRFTISRDNAKNTLYLQMNSLKPEDSARYYCAAASDVAVGVNSCGGRTAGFDAWGQGTQVTVSS",binds
10,"AS68270 (VHH, camel sdAb; crude E. coli supernatant) VHH: QVQLAESGGGSVQAGGSLRLSCVASGYPSSTYYMLSMAWFRQAPGKEREGVAAITSGTGSTSYADSVKDRFTISKDYANNTLYLHINNLKPEDTAMYYCAAASGWIVPSRSLTANLYRYWGQGTQVTVSS",binds
11,"AS64420 (VHH, camel sdAb; crude E. coli supernatant) VHH: EVQLVESGGGSVQAEGSLRLSCAASGDTSRSVWMGWARQVPGKEREVVATISTAGGSTWYTDSVKGRFTISQDNAKNTVYLQMNSLKPEDTAIYYCAARSRYATYWGQGTQVTVSS",binds
12,"AS64163 (VHH, camel sdAb; crude E. coli supernatant) VHH: QVRLVESGGGSVQAGGSLRLSCAVSGYRYRWNCMAWFRQAPGKEREGVAAISTGSGSTYYAGSVKGRFTISQDNAKNMYLQMNSLKPEDTAMYYCAADPSVCPGGMWYSKEYRYWGQGTQVTVSS",binds
13,"AS64118 (VHH, camel sdAb; crude E. coli supernatant) VHH: QVQLAESGGGSVQAGGSLRLSCAASGYTYSACRMAWYRQAPGKERELVSFINSAGSTYYADSVKGRFAISRDNAKTTVYLQMNALKAEDTAIYYCNTWDSSCRFQYWGQGTQVTVSS",binds
14,"AS64513 (VHH, camel sdAb; crude E. coli supernatant) VHH: EVQLVESGGGSVQAGGSLRLSCVASDYPYIDNCMGWFRQGPGKEREGVAAACTGGGSTYYADSVKGRFTISRDNAKNTVYLQMNSLKPEDTDVYYCATGYYSGSGPGYLLPWRYNYWGQGTQVTVSS",binds
15,"AS63948 (VHH, camel sdAb; crude E. coli supernatant) VHH: QVQLVESGGGSVQAGGSLRLSCTASGYTYRYLYMGWFRQTPGKEREGVACIYTGSGSTGYADSVKGRFTISQDNAENTVYLQMNSLKPEDTAMYYCAAASPRWGGTCRRWSEYNYWGQGTQVTVSS",binds
16,"AS64154 (VHH, camel sdAb; crude E. coli supernatant) VHH: QVQLKESGGGSVQAGGSLRLSCTASGYTYRYLYMGWFRQTPGKEREGVACIYTGSGSTGYADSVKGRFTISQDNAKNTVYLQMNNLKPEDTAMYYCAASSPRWGGTCRRWSQYNYWGQGTQVTVSS",binds
17,"AS64182 (VHH, camel sdAb; crude E. coli supernatant) VHH: QVHLMESGGGSVQAGGSLRLSCTASGQTSRYLYMGWFRQTPGKEREGVACIYTGSGSTGYADSVKGRFTISQDNAKNTVYLQTNSLKPEDTAMYYCAASSPHWGGTCRRWSEYKYWGQGTQVTVSS",binds
18,"AS64473 (VHH, camel sdAb; crude E. coli supernatant) VHH: QVRLVESGGGSVQAGGSLRLSCTASGYTYRYLYMAWFRQTPGKEREGVACIYTGSGTTGYADSVKGRFTISQDNAKNTVYLQMNSLNAEDTAMYYCAASSPQWGGTCRRWSEYNYWGQGTQVTVSS",binds
19,"AS64346 (VHH, camel sdAb; crude E. coli supernatant) VHH: QVHLVESGGGSVQAGGSLRLSCAASGYTYFMGWFRQAPQKEREWVATIGTGDIFNGAAYYVDSVKGRFAISQDNAKNTVYLQMNSLKPEDTAVYVCAAVQSKSSNYVLRDASTYNYWGQGTQVTVSS",binds
20,"AS64583 (VHH, camel sdAb; crude E. coli supernatant) VHH: EVQLAESGGGLVQAGGSLRLSCTASGFTIAVYTMGWFRQAPGKEREGISCTSWAGGRTYTADSVKGRFTISRDNAKNTLYLQMNSLKPEDTAMYYCAAKAHPDCSGDWSPSGYEYWGQGTQVTVSS",binds
21,"AS64562 (VHH, camel sdAb; crude E. coli supernatant) VHH: EVQLVESGGGSVQAGGSLRLSCAASGYTARRDFMAWFRQVPGKEREGVAVIHTGGDTTYYADSVKGRFTISRDNAQNIMNLQMNSLKPEDTAMYYCAAGFRPRGGGYTGDVLAQAAAYNYWGQGTQVTVSS",binds
22,"AS64116 (VHH, camel sdAb; crude E. coli supernatant) VHH: QVKLVESGGGSVQAGGSLRLSCAASGYIYSCVGWFRQAPGKEREGVAGISTGGGGTVYADSVKGQFTISRDNAKNTVYLQMDSLKPEDTAMYYCAADRWNSFANCGAWGRYTYWGQGTQVTVSS",binds
23,"AS64183 (VHH, camel sdAb; crude E. coli supernatant) VHH: QVHLVESGGGSVQAGGSLRLSCAASGHTYSANCMAWFRRAPGKEREWVASVYTDDDSTMYTDSVKGRFTIFQDNAKNTVYLQMNSLKPEDTGMYICAADLSGGPAGCGYTHWGQGTQVTVSS",binds
24,"AS64135 (VHH, camel sdAb; crude E. coli supernatant) VHH: QVKLVESGGGSVQAGGSLRLSCVASTSTYCRYYMRWYRQAPGKEREFVSAMQPDGTTSYSDSVKGRFTMSQDRANNMLYLQMNSLRPEDTAMYYCKRDPMGGSRTPCTSAWGQGTQVTVSS",binds
25,"AS68121 (VHH, camel sdAb; crude E. coli supernatant) VHH: EVQLAESGGGSVQAGGSLRLSCDASGYTYSRNCMGWFRQAPGKEREGVAAFYTDYIRFGRTYYADSVKGRFTIFQDNAKNTVYLQMNSLKPEDTAMYYCAADPGSRTDDSCGTSYNKGNFGYWGQGTQVTVSS",binds
26,"AS64120 (VHH, camel sdAb; crude E. coli supernatant) VHH: QVRLVESGGGSVQAGGSLRLSCETSRYIYGNNCMAWFRQAPGKEREGVASIYPAGGRPYYADSVKGRFTISQDNAKNTVYLQMDSLKPEDTAMYYCAARSFSIADCATQSGITRSNFAYWGQGTQVTVSS",binds
27,"AS63951 (VHH, camel sdAb; crude E. coli supernatant) VHH: QVHLMESGGGSVQAGGSLRLACETSRDIYGNNCMAWFRQAPGKEREGVASIYPAGGRPYYADSVKGRFTISQDNAKNTVYLQMDSLKPEDTAMYYCAARSFSIAVCATRSGITRSNFAYWGQGTQVTVSS",binds
28,"AS64093 (VHH, camel sdAb; crude E. coli supernatant) VHH: QVHLVESGGGSVQAGGSLRLSCATSRYIYGNNCMAWFRQAPGKEREGVASIYPAGGRTYYADSVKGRFTISQDNAKNTVYLQIDSLKPEDTAMYYCAARSFSIGVCATQSGITWSNFAYWGQGTQVTVSS",binds
29,"AS64276 (VHH, camel sdAb; crude E. coli supernatant) VHH: QVHLMESGGGSVQAGGSLSLSCVVSGYTGSSRCMAWFRQAPGKEREAVAQIFTGRGTTGYADSVKGRFTISQDNAKNTVYLRMNSLRPEDTAIYYCAASLGPGRGACGYNYWGQGTQVTVSS",binds
30,"AS64336 (VHH, camel sdAb; crude E. coli supernatant) VHH: QVQLVESGGGSVQAGGSLRLSCTTSGRTYSSCSMGWYRQAPGKERELVSHIFSDGSRYYADSVKGRFTISQDNAKNTVYLQMNSLKPEDTAMYYCNRRTGWAPRCAVPGYWGQGTQVTVSS",binds
